Assay results as given in patent US20220332804A1 (CSL INNOVATION, published 2022).

Columns and labels:
Experiment in all cases: SPR, antibody captured, C2 as analyte;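 further: biacore at 37 °C, anti-C2 mAbs held by immobilised goat anti-human IgG, C2 alanine or serine mutants injected, double-referenced sensorgrams fitted to a 1:1 kinetic or steady-state model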
human C2 N424A = biological target: T1, human C2 N424A (human, UniProt P06681 21-752)
T1 sequence: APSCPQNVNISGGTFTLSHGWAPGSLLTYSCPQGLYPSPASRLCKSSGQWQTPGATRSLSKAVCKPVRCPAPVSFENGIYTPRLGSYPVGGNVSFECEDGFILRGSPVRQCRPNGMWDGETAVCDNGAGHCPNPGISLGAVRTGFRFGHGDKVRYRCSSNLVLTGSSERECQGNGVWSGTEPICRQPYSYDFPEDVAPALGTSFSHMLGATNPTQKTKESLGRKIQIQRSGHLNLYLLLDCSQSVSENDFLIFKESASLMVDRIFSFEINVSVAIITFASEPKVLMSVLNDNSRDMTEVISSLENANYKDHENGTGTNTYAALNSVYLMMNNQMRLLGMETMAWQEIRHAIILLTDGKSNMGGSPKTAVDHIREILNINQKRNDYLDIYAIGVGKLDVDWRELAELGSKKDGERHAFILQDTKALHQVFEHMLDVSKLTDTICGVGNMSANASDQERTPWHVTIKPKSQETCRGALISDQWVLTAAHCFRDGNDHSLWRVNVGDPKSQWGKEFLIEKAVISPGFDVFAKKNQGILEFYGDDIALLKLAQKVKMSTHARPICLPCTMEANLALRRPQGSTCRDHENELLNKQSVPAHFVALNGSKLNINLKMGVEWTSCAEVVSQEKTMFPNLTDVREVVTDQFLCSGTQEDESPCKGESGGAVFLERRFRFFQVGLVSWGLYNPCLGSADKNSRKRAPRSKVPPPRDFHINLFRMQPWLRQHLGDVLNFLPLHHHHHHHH

human C2 L279A = biological target: T2, human C2 L279A (human, UniProt P06681 21-752)
T2 sequence: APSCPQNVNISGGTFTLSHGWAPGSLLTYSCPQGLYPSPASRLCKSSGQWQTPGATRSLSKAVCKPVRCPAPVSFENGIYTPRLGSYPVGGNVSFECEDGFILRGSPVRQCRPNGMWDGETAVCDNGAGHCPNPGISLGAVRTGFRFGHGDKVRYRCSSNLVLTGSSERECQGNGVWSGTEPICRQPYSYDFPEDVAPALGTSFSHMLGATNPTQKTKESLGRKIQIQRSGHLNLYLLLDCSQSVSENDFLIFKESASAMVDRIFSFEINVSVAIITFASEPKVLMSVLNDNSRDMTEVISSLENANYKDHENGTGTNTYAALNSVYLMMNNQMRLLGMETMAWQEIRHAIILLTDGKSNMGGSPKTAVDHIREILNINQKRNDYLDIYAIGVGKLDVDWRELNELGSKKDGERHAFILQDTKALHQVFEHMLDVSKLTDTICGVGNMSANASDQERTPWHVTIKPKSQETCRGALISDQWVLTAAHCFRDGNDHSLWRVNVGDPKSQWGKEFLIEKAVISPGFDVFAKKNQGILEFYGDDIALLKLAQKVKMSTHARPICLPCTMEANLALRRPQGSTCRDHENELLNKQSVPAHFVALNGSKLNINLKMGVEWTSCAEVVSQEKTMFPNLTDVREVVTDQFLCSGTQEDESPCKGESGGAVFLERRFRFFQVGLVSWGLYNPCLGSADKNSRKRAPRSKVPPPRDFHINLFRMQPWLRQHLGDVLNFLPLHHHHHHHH

human C2 S473A = biological target: T3, human C2 S473A (human, UniProt P06681 21-752)
T3 sequence: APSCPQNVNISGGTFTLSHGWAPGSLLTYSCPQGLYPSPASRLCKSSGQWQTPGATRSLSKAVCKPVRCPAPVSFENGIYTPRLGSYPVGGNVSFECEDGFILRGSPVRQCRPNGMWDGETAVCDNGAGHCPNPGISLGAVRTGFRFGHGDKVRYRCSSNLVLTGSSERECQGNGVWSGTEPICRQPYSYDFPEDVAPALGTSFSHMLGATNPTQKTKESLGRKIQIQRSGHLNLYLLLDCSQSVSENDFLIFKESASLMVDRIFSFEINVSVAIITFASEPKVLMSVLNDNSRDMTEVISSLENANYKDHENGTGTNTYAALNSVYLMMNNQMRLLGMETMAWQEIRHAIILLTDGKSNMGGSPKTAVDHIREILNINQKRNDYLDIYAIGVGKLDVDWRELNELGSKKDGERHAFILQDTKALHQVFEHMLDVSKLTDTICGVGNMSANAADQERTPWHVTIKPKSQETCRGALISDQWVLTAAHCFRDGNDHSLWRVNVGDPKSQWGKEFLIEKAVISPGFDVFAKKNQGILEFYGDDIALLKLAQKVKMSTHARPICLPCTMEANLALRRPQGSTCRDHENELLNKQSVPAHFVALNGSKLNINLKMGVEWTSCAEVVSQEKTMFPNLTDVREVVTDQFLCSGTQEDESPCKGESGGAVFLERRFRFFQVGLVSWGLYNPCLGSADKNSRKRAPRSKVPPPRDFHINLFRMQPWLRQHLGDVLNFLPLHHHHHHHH

human C2 N380A = biological target: T4, human C2 N380A (human, UniProt P06681 21-752)
T4 sequence: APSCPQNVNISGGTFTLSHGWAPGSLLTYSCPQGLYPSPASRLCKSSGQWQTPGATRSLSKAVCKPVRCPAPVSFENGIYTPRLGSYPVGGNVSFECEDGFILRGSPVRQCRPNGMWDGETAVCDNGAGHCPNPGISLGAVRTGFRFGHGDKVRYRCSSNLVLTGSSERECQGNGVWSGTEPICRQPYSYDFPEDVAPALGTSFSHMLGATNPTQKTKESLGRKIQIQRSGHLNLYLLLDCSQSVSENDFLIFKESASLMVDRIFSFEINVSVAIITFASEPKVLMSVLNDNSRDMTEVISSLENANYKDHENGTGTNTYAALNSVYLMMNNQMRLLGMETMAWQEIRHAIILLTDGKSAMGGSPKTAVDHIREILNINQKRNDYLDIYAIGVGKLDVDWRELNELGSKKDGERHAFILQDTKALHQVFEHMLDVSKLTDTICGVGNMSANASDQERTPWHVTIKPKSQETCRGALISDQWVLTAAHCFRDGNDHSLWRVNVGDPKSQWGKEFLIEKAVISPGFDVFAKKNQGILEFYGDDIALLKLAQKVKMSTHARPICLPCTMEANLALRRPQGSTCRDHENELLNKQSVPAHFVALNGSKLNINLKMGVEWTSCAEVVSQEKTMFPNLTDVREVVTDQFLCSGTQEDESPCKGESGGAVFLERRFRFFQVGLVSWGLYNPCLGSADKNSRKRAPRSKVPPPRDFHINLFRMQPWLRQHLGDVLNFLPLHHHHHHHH

B1: RF16-242 (antibody, human IgG4 S228P, lambda, V domains shown)
VH: EVQLLQSGAEVKKPGESLKISCKGSGYSFTSYWIGWVRQMPGKGLEWMGIIYPGDSDTRYSPSFQGQVTISADKSISTAYLQWSSLKASDTAMYYCARRGHYGDYFDYWGQGTLVTVSS
VL: SYELTQPPSVSVSPGQTARITCSGDALPKKYAYWYHQKSGQAPVLVIYEDRRRPSEIPERFSGSSSGTMATLTITGAQVEDEGVYFCYSRDRAGNQRVFGGGTQLTVLG
notes: pH-dependent anti-C2 antibody from a phage display library
B1 gave a Kd (human C2 N424A) of 5.7 nM, a Kd (human C2 L279A) of 49.2 nM and a Kd (human C2 S473A) of 15.5 nM. The Kd (human C2 N380A) was 10.2 nM.
